In US6107076A, “Soluble mammalian adenylyl cyclase and uses therefor” (Board of Regents, The University of Texas System, priority 1996, dated 2000):
One block for each compound: values may come before it.

How the values were obtained:
[1] = target: T1, soluble adenylyl cyclase chimera IC1 IIC2 -L3 (C1a of type I adenylyl cyclase, residues 271-484, linked to C2a of type II adenylyl cyclase, residues 821-1090) (UniProt P19754+P26769); test: Adenylyl cyclase activity of 150,000 g supernatant from E. coli expressing IC1 IIC2 -L3; format: biochemical, mammalian
T1 construct: IC1a includes residues 271-484 of type I adenylyl cyclase; IIC2a includes residues 821-1090 of type II adenylyl cyclase; made in house; host or cells: E. coli TP2000 (150,000 g supernatant)
T1 sequence (P19754+P26769 fused, change not shown): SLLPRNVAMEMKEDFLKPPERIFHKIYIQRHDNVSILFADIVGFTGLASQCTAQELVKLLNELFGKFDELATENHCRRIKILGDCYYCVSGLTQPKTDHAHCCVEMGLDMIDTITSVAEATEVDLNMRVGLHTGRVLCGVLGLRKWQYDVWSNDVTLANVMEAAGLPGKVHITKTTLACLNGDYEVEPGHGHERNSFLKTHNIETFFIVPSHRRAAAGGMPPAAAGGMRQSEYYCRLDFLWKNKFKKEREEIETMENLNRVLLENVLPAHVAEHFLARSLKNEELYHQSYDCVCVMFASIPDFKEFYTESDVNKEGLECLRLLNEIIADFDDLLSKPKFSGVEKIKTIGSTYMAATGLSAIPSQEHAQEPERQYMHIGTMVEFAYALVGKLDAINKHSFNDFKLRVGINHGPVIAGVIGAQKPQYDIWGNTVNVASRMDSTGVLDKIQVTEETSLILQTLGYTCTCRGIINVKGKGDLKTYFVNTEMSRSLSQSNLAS
Experimental: FIG. 2--Enzyme activity of chimeras.
Data shown are representative of at least two studies.
E. coli that contained the desired plasmids were grown in LB plus 50 μM carbenicillin to OD600 =0.3. Isopropyl-β-D-thiogalactopyranoside(100 μM) and chloramphenicol (0.5 μM) were added to induce expression of adenylyl cyclase for 12 hours. Bacteria were then collected by centrifugation at 4° C. and lysed by incubation at 4° C. for 30 min in 20 mM Tris-HCl (pH 8.0), 1 mM EDTA, 2 mM dithiothreitol (DTT) and protease inhibitors with 0.1 mg/ml of lysozyme. The suspension was sonicated briefly (3×20 sec) during incubation. The lysate was centrifuged (4° C.) at 150,000×g for 30 min, and the supernatant was recovered.
The inventors examined adenylyl cyclase activity in vitro in 150,000 g supernatant fractions from E. coli […] transformed with the various constructs. […] Ca^2+ -calmodulin had no detectable effect on activity, and lysates from cells expressing either IC1 or IIC2 had little adenylyl cyclase activity.
However, the maximal stimulatory effect of the G protein α subunit exceeded that of forskolin (FIG. 4). […] Synergistic activation of the enzyme was thus not due to alternation of apparent substrate affinity.

[2] = target: IC1 (C1a domain of type I adenylyl cyclase, construct of Example 5) (Bos taurus (Bovine))
[3] = target: IC1 (C1a domain of type I adenylyl cyclase, construct of Example 5) (Bos taurus (Bovine)); remark: listed apart in the source
[4] = target: IC1 (C1a domain of type I adenylyl cyclase, construct of Example 5) (Bos taurus (Bovine)); test: estimated from the adenylyl cyclase activity of 0.1 µM IC1 titrated with IIC2 without activator (FIG. 13A, model of FIG. 15); no direct binding assay
[5] = target: IC1 IIC2 -L1
[6] = target: IC1 IIC2 -L3
[7] = target: IC1 IIC2 -L5
[8] = target: IC1 IIC2 -L3; remark: listed apart in the source
[9] = target: mixture of IC1 and IIC2 (non-covalent complex of the C1 domain of type I and the C2 domain of type II adenylyl cyclase) (Bos taurus (Bovine); Rattus norvegicus (Rat))
[10] = target: mixture of IC1 and IIC2 (non-covalent complex of the C1 domain of type I and the C2 domain of type II adenylyl cyclase) (Bos taurus (Bovine); Rattus norvegicus (Rat)); test: equilibrium constant of the model of FIG. 15, derived from the EC50 of activated Gsα for adenylyl cyclase activity of mixed IC1 and IIC2; no direct binding assay

stimulation of adenylyl cyclase activity ([1]; 150,000 g supernatant, FIG. 3): failed to stimulate
Compound: C=CC1(C)CC(=O)C2C3(C)CCCC(C)(C)C3C(O)C(OC(C)=O)C2(C)O1 (stereo not drawn) [1,9-dideoxyforskolin]

inhibition of adenylyl cyclase activity (P-site inhibitor), mode ([1]; forskolin-activated enzyme, FIG. 7): inhibited noncompetitively
Compound: Nc1ncnc2c1ncn2[C@H]1C[C@H](OP(=O)(O)O)[C@@H](CO)O1 [2'-deoxy-3'-AMP]

apparent EC50 for IIC2, adenylyl cyclase activity with 8 nM IC1, 50 µM FSK and 10 µM GTP[γS]-Gsα [2]: 15 nM
apparent EC50 for IIC2, adenylyl cyclase activity with 8 nM IC1 and 50 µM FSK [2]: 190 nM
EC50 for IIC2, adenylyl cyclase activity with IC1 in the absence of activators [3]: > 10000 nM
Kd [4]: > 10000 nM
Compound: IIC2 (C2 domain of type II adenylyl cyclase, construct of Example 5) (enzyme)

adenylyl cyclase activity of 150,000 g supernatant [5]: 50 fold
adenylyl cyclase activity of 150,000 g supernatant [6]: 50 fold
adenylyl cyclase activity of 150,000 g supernatant [7]: 50 fold
EC50 for activation of adenylyl cyclase activity [8]: 1000 nM
adenylyl cyclase activity of purified mixed fragments (8 nM IC1, 6.6 µM IIC2) against the concentration of activated Gsα [9]: > 100 fold
K4 [10]: 0.4 µM
Compound: wild-type alpha subunit of the G protein (Gsα)
